Assay results published in patent US11839630B2, “CAR-T cells targeting IL-1RAP and their use” (ETABLISSEMENT FRANCAIS DU SANG, priority 2017, dated 2023).
Several values for one entry are separate records, joined by “and”; a condition that tells them apart may be missing. Identical values can stand only once.

Experiments:
[1] = biological target: T1, IL-1RAP (Homo sapiens, UniProt Q9NPH3); assay: Immunostaining of FDA standard frozen normal tissue array; format: binding; set-up: FDA standard frozen tissue arrays, including 90 tissue cores (30 organs) of 3 individual donors per organ; tissue US Biomax; host or cells: FDA standard frozen normal human tissue array (30 organs, 3 donors each); key to Staining intensity (0 to 3+): negative (0); weak staining (1+); moderate staining (2+); strong staining (3+); details: for normal tissues in which staining was detected: 30 normal human tissues, 3 donors per organ
T1 sequence (Q9NPH3 21-570): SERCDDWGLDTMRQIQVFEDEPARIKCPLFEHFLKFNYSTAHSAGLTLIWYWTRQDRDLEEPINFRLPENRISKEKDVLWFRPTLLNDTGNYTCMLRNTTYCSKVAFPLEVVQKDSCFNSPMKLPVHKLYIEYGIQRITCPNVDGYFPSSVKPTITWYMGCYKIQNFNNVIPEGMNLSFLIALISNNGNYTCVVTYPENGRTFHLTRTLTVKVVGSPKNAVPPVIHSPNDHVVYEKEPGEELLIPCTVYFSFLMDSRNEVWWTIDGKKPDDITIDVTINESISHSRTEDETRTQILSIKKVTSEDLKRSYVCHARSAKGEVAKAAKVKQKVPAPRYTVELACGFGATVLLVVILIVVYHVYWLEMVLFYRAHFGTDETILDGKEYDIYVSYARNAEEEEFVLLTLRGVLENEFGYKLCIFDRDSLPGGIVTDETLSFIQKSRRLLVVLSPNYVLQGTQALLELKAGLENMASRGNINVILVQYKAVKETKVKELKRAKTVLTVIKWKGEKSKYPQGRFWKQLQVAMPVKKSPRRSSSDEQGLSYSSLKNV
Description: FIG. 22: (A) Tissue microarray. Representative #A3C3 staining of an US Food and Drug Administration standard frozen tissue array, including 90 tissue cores (30 organs) of 3 individual donors per organ (US Biomax, Rockville, MD, USA). Immunostaining was detected using the UltraView Universal DAB Detection Kit (Ventana, USA). Images were acquired and analyzed with NDP.view 2.0 software. […] (Scale bars, 100 μm.) High IL-1RAP (KU812)— or negative (Raji)-expressing cell lines were respectively used as positive or negative controls. (B) IL-1RAP R&D (red) or #A3C3 (blue) staining of HMEC-1 dermal endothelial cell line. Isotype IgG1 (gray) is depicted as overlay. RFI is provided for both staining.
In order to study specific or non-target tissue binding, FDA standard frozen tissue arrays, including 90 tissue cores (30 organs) of 3 individual donors per organ (US Biomax, Rockville, United States) were incubated as previously described. Immunostaining was detected using UltraView Universal DAB Detection Kit (Ventana, USA). Images were acquired and analyzed with NDP.view 2 software. High IL-1RAP (KU812) or negative (Raji) expressing cell lines were respectively used as positive or negative controls. The staining intensity was graduated as follows: negative (0), weak staining (1+), moderate staining (2+), or strong staining (3+). […]

[2] = biological target: T1, IL-1RAP; assay: Western blot with #E3C3 mAb; format: binding; details: leukemic cell line lysates; #E3C3 diluted 1:10^3
Description: FIG. 1: Use of #E3C3 mAb in western blot. The leukemic cell lines KU812, KG-1, Nalm-20, Jurkat, and Raji are used. Transfected HT1080 cell line with IL-1RAP cDNA variant was used as control. […] Line a: detection of IL-1RAP (72 kDA), Line b: detection of the control actin (43 kDA), *: weak signal.
Whole-cell, subcellular or secreted protein fractions of cells listed in example 1 were obtained after sonication and suspended in RIPA lysis and extraction buffer (ThermoFisher Scientific) supplemented with a protease inhibitor cocktail (complete Mini EDTA-free; Roche, Switzerland). Transfected HT1080 cell line with IL-1RAP cDNA variant 1 (NM_002182.2, NCBI) was used as control. […] Transferred proteins on PDVF membranes were probed overnight with either primary IL-1RAP #E3C3 (diluted at 1:10^3), CD3zeta (BD Pharmigen, clone #8D3) or β-actin (1:10^3, clone AC15, #A5441, Sigma-Aldrich) respectively for IL-1RAP, CAR or β-actin expression. Immunodetection staining was performed with a secondary polyclonal antibody sheep anti-mouse IgG (#515-035-062, Jackson, USA). Detection was performed with a camera and Bio-1D software (Vilber-Lourmat, Collegien, France).

B1: #E3C3: mouse anti-hIL-1RAP monoclonal antibody subclone generated by standard hybridoma technique; VH SEQ ID NO: 2, VL SEQ ID NO: 4 (antibody, V domains shown)
VH: MGWSCIILFLVATATGVNSQVQLQQPGAELMMPGASVKVSCEASGYTFTDSWMHWVKQRPGQGLEWIGAIDPSDSYTTYNQKFTGKATLSVDESSNTAYMQLSSLTSEDSAVYYCARYYSGSNYISPFPYWGQGTLVTVSA
VL: MESQIQVFVFVFLWLSGVDGDIVMTQSHKFMSTSVGDRVTITCKASLDVSTAVAWYQQKPGQSPKLLIYSASYRYTGVPDRFTGSGSGTDFTFTISSVQAEDLAVYYCQQHYSPPFTFGSGTNLEIK
modifications: Amino acid sequence of chain H (VH) of murine scFv anti-IL-1RAP; Amino acid sequence of chain K (VL) of murine scFv anti-IL-1RAP
- normal tissues in which staining was detected [1]: only 6 tissues as Lymph node, colon, small intestine, placenta, stomach and prostate
- normal tissues in which staining was detected ([1]; listed as #A3C3): only six tissues: lymph node, prostate, skeletal muscle, stomach, colon and small intestine, and pancreas
- Staining intensity (0 to 3+) ([1]; Adrenal gland, replicates): 0
- Staining intensity (0 to 3+) ([1]; Cerebellum tissue, replicates): 0
- Comments: epithelial cells stained ([1]; Colon): Epithelial cells (~30%);
- Comments: inflammatory elements stained ([1]; Colon): inflammatory elements (100%)
- Staining intensity (0 to 3+) ([1]; Colon, replicates): 3+
- Staining intensity (0 to 3+) ([1]; Esophagus, replicates): 0
- Staining intensity (0 to 3+) ([1]; Heart, replicates): 0
- Staining intensity (0 to 3+) ([1]; Kidney, replicates): 0
- Staining intensity (0 to 3+) ([1]; Liver, replicates): 0
- Comments: stained elements ([1]; Lung): Few inflammatory elements
- Staining intensity (0 to 3+) ([1]; Lung, replicates): 2+
- Comments: endothelial cells stained ([1]; Lymph node): ~30% of endothelial cells
- Staining intensity (0 to 3+) ([1]; Lymph node, replicates, listed as mAb#A3C3): 2+ and 1+
- Staining intensity (0 to 3+) ([1]; Ovary, replicates): 0
- Staining intensity (0 to 3+) ([1]; Pancreas, replicates): 1+
- Staining intensity (0 to 3+) ([1]; Peripheral nerve, replicates): 0
- Staining intensity (0 to 3+) ([1]; Pituitary gland, replicates): 0
- Comments: cytotrophoblast cells stained ([1]; Placenta): Cytotrophoblast cells (~10%)
- Staining intensity (0 to 3+) ([1]; Placenta, replicates): 0
- Comments: endothelial cells stained ([1]; Prostate): ~10% of endothelial cells
- Staining intensity (0 to 3+) ([1]; Prostate, replicates, listed as mAb#A3C3): 1+ (2×) and 0 (4×)
- Staining intensity (0 to 3+) ([1]; Salivary gland, replicates): 0
- Comments: endothelial cells stained ([1]; Skeletal muscle): ~10% of endothelial cells
- Staining intensity (0 to 3+) ([1]; Skeletal muscle, replicates (first listing), listed as mAb#A3C3): 1+ and 0 (2×)
- Staining intensity (0 to 3+) ([1]; Skeletal muscle, replicates (second listing)): 0
- Staining intensity (0 to 3+) ([1]; Skin, replicates): 0
- Comments: epithelial cells stained ([1]; Small intestine): Epithelial cells (~30%);
- Comments: inflammatory elements stained ([1]; Small intestine): inflammatory elements (100%)
- Staining intensity (0 to 3+) ([1]; Small intestine, replicates, listed as mAb#A3C3): 2+ and 0 and 1+
- Staining intensity (0 to 3+) ([1]; Smooth muscle, replicates): 0
- Staining intensity (0 to 3+) ([1]; Spinal cord, replicates): 0
- Comments: stained elements ([1]; Spleen): Necrotic elements
- Staining intensity (0 to 3+) ([1]; Spleen, replicates): 3+
- Comments: epithelial cells stained ([1]; Stomach): few epithelial cells <10%
- Comments: gastric mucosa cells stained ([1]; Stomach): Few gastric mucosa cells (~10%);
- Staining intensity (0 to 3+) ([1]; Stomach, replicates, listed as mAb#A3C3): 1+ and 0 (2×)
- Staining intensity (0 to 3+) ([1]; Testis, replicates): 0
- Staining intensity (0 to 3+) ([1]; Thyroid gland, replicates): 0
- Staining intensity (0 to 3+) ([1]; Ureter, replicates): 0
- Staining intensity (0 to 3+) ([1]; Uterine cervix, replicates): 0
- detection in western blot [2]: reveals KU812
